Article PMC7954794, “Protein context shapes the specificity of SH3 domain-mediated interactions in vivo” (Nature Communications, 2021)

B1: Lsb3 (protein)
chain: MGINNPIPRSLKSETKKAAKILASFVKPNQVFGADQVIPPDVLKRAKGLAIITILKAGFLFSGRAGSGVIVARLKDGTWSAPSAIAMAGAGAGGMVGIELTDFVFILNTQDAVKSFSEFGTITLGGNVSVSAGPLGRSAEAAASASAGGVAAVFAYSKSKGLFAGVSVEGSAIIERREANRKFYGDNCTAKMILSGRIRPPPAVDPLFRVLESRAFNYRPSNGGRGSFDDDEDDYYDDDDYYNDIPSSFSSTDASSTRPNTRSTRRRAQSGSRYTFDDDDDDDDYGTGYSRNSRLAPTNSGGSGGKLDDPSGASSYYASHRRSGTAQSRARSSRNRWADDEYDDYDDDYESGYRRGNGRDRTKDREVDDLSNRFSKSRISSASTPQTSQGRFTAPTSPSTSSPKAVALYSFAGEESGDLPFRKGDVITILKKSDSQNDWWTGRVNGREGIFPANYVELV
modifications: left off: DHFR F[3], C-terminal, kept
B2: Myo5 (protein, UniProt Q04439 1-1219, looked up)
Myosin-5: MAILKRGARKKVHQEPAKRSANIKKATFDSSKKKEVGVSDLTLLSKISDEAINENLKKRFLNATIYTYIGHVLISVNPFRDLGIYTDAVMNEYKGKNRLEVPPHVFAIAESMYYNMKSYNENQCVIISGESGAGKTEAAKRIMQYIAAASSTHTESIGKIKDMVLATNPLLESFGCAKTLRNNNSSRHGKYLEIKFNNQFEPCAGNITNYLLEKQRVVSQIKNERNFHIFYQFTKGASDAYRQTFGVQKPEQYVYTAAAGCISAETIDDLQDYQETLKAMRVIGLGQEEQDQIFRMLAAILWIGNVSFIENEEGNAQVRDTSVTDFVAYLLQIDSQLLIKSLVERIMETNHGMKRGSVYHVPLNIVQADAVRDALAKAIYNNLFDWIVSRVNKSLQAFPGAEKSIGILDIYGFEIFEHNSFEQICINYVNEKLQQIFIQLTLKSEQETYEREKIQWTPIKYFDNKVVCDLIEARRPPGIFAAMNDSVATAHADSNAADQAFAQRLNLFTTNPHFDLRSNKFVIKHYAGDVTYDIDGITDKNKDQLQKDLVELIGTTTNTFLATIFPDTVDRESKRRPPTAGDKIIKSANDLVETLSKAQPSYIRTIKPNETKSPNDYDDRQVLHQIKYLGLQENVRIRRAGFAYRQVFEKFVERFYLLSPHCSYAGDYTWQGDTLDAVKYILQDSSIPQQEYQLGVTSVFIKTPETLFALEHMRDRYWHNMAARIQRAWRRFLQRRIDAATKIQRTIRERKEGNKYEKLRDYGTKVLGGRKERRSMSLLGYRAFMGDYLSCNESKSKGAYIKRQVSIKEKVIFSIHGEALHTKFGRSAQRLKKTFLLTPTTLYIVGQTLVQNAMTYTQDYKIDVRNIQAVSLTNLQDDWVAIKLASSGQPDPLINTYFKTELITHLKRLNDKIQIKIGSAIEYQKKPGKLHSVKCQINESAPKYGDIYKSSTISVRRGNPPNSQVHKKPRKKSSISSGYHASSSQATRRPVSIAAAQHVPTAPASRHSKKPAPPPPGMQNKAATRRSVPNPASTLTASQSNARPSPPTAATRATPAATPAAAAMGSGRQANIPPPPPPPPPSSKPKEPMFEAAYDFPGSGSPSELPLKKGDVIYITREEPSGWSLGKLLDGSKEGWVPTAYMKPHSGNNNIPTPPQNRDVPKPVLNSVQHDNTSANVIPAAAQASLGDGLANALAARANKMRLESDDEEANEDEEEDDW
B3: Pex13 (protein, UniProt P80667 1-386, looked up)
Peroxisomal membrane protein …: MSSTAVPRPKPWETSASLEEPQRNAQSLSAMMTSNQQDSRPTEESNNSNSASESAPEVLPRPAALNSSGTYGESNTIPGIYGNSNYGIPYDNNPYSMNSIYGNSIGRYGYGGSYYGNNYGSFYGGGYGAGAGYGMNNGSGLGESTKATFQLIESLIGAVTGFAQMLESTYMATHNSFFTMISVAEQFGNLKEMLGSFFGIFAIMKFLKKILYRATKGRLGIPPKNFAESEGSKNKLIEDFQKFNDSGTINSNEKATRRKISWKPLLFFLMAVFGFPYLLNKFITKLQTSGTIRASQGNGSEPIDPSKLEFARALYDFVPENPEMEVALKKGDLMAILSKKDPLGRDSDWWKVRTKNGNIGYIPYNYIEIIKRRKKIEHVDDETRTH
B4: Pin3 (protein, UniProt Q06449 2-215, looked up)
[PSI+] inducibility protein 3: SASLINRSLTNIRTELDFLKGSNVISNDVYDQINKSLPAKWDPANAPRNASPASLEYVEALYQFDPQQDGDLGLKPGDKVQLLEKLSPEWYKGSCNGRTGIFPANYVKPAFSGSNGPSNLPPPPQYKAQELQQIPTQNSAASSYQQQPFPPPSTNYYQQPQQQPQQAPPPQQQQQQQQHQSSHSHLKSFGSKLGNAAIFGAGASIGSDIVNNIF
B5: Sdc25 (protein, UniProt P0CF34 1-1048, looked up)
Putative truncated guanine …: MPITSSPDLFYLNDCDVVYWYDLTRLVCHYVNLTERDLLANEREKFLTSLDLLTAQITYVYMLFRNLRLVEDSFKKTLKKLIYTLSRFSINANIWFHSTLFEEREAIASQKDPERRSPLLQSILGTFQKFHFLLRLLHFLSNPNELTILPQLTPRFFKDSFNTISWNNPFLRKRLNQHMSHDLPRQMIKAVAGASGIVAENIDEIPASKQGTSCSSETSHHSPSAPFQRRRRGTIFSNVSGSSDESDTIWSKRKKPYPLNEETLSLVRARKKQLDGKLKQMIKSANEYLSNTANFSKMLNFEMNFKTYEEVSGTIPIIDILENLDLTIFLNLRELGDENRVFDEDVAIDDEDEEFLKHSLSSLSYILSDYFNMKQYFHDVVVKFIIVAQHLTLEDPFVFSPMQNDLPTGYYEPMKPSSLNLDNAKDKKNGSQNTDIQEEEDEYEPDPDSLILFHNLINQDSDFNDLKFFNLAHVFKKSCDDYFDVLKLAIEFVNQLILERENLLNYAARMMKNNITELLLRGEEGYGSYDGGETAEKSDTNAVYADSDTKDNDEWRDSQVKLPRYLQREYDSELIWGSNNRIKGGSKHALISYLTDNEKKDLFFDITFLITFRSIFTTTEFLSYLISQYNLDPPEDLCFEEYNEWVTKKLIPVKCRVVEIMTTFFKQYWFLGYDEPDLATLNLDYFAQVAIKENITGSVELLKEVNQKFKHGNIQEATAPMKTLDQQICQDHYSGTLYSTTESILAVDPVLFATQLTILEHEIYCEITIFDCLQKIWKNKYTKSYGASPGLNEFISFANKLTNFISYSVVKEADKSKRAKLLSHFIFIAEYCRKFNNFSSMTAIISALYSSPIYRLEKTWQAVIPQTRDLLQSLNKLMDPKKNFINYRNELKSLHSAPCVPFFGVYLSDLTFTDSGNPDYLVLEHGLKGVHDEKKYINFNKRSRLVDILQEIIYFKKTHYDFTKDRTVIECISNSLENIPHIEKQYQLSLIIEPKPRKKVVPNSNSNNKSQEKSRDDQTDEGKTSTKKDRFPKFQLHKTKKKAPKVSK
B6: Sho1 (protein, UniProt P40073 1-367, looked up)
High osmolarity signaling …: MSISSKIRPTPRKPSRMATDHSFKMKKFYADPFAISSISLAIVSWVIAIGGSISSASTNESFPRFTWWGIVYQFLIICSLMLFYCFDLVDHYRIFITTSIAVAFVYNTNSATNLVYADGPKKAAASAGVILLSIINLIWILYYGGDNASPTNRWIDSFSIKGIRPSPLENSLHRARRRGNRNTTPYQNNVYNDAIRDSGYATQFDGYPQQQPSHTNYVSSTALAGFENTQPNTSEAVNLHLNTLQQRINSASNAKETNDNSNNQTNTNIGNTFDTDFSNGNTETTMGDTLGLYSDIGDDNFIYKAKALYPYDADDDDAYEISFEQNEILQVSDIEGRWWKARRANGETGIIPSNYVQLIDGPEEMHR
B7: Ysc84 (protein, UniProt P32793 1-468, looked up)
Protein YSC84: MGINNPIPRSLKSETKKAAKVLRSFVKPNQVFGADQVIPPYVLKRAKGLAIITVLKAGFLFSGRAGSGVIVARLKDGTWSAPSAIAMAGAGAGGMVGVELTDFVFILNSEEAVRSFSEFGTITLGGNVSVSAGPLGRSAEAAASASTGGVSAVFAYSKSKGLFAGVSVEGSAILERREANRKFYGDNCTSKMILSGRVKVPPAADPLLRILESRAFNFTRHDHDDNASGDDFYDDGQYSDNTSHYYDDIPDSFDSTDESSTRPNTRSSRRRGMSLGSRSRYDDDYDDDGYGRGRGYGDFDSEDEDYDYGRSPNRNSSRNRGPQIDRGTKPRANTRWEDDLYDRDTEYSRPNHSGRDYDNTRGNRRGYGRERGYSLGHGPTHPSNMSNVDDLSHKMSKTGLGNESTATNSATPTAVALYNFAGEQPGDLAFKKGDVITILKKSDSQNDWWTGRTNGKEGIFPANYVRVS

These molecules were tested on Abp1 PPIs (assay: DHFR-PCA of Abp1 SH3-swapped baits (Fig. 2B-D, S2C, S2F)). Conditions: number of interactions of Abp1 carrying the named SH3; sheet FigS2A-B.
Type: cell-based, Saccharomyces cerevisiae
Summary of the method: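 Yeast DHFR-PCA in which Abp1 baits, carrying their SH3 replaced by CRISPR–Cas9 with one of 27 yeast SH3s or human CTTN, HCLS1 or DBNL SH3s, were mated against 575 SH3-associated DHFR F[3] preys plus 40 negative controls. Four tests were run per PPI. Diploids were selected twice (48 h, 30 °C), then grown 4 days on PCA selection media.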
For B1, the “Interactions in Abp1” value was 107.
With B2 the “Interactions in Abp1” value was 100.
In the case of B3, the “Interactions in Abp1” value is reported as 91.
In the case of B4, the “Interactions in Abp1” value is reported as 99.
B5 was tested, and the “Interactions in Abp1” value was 10.
With B6 the “Interactions in Abp1” value was 81.
In the case of B7, the “Interactions in Abp1” value is reported as 108.

These molecules were tested on Abp1 (1xFLAG) (assay: Western blot expression level of Abp1 SH3-swapped baits (Fig. S2A-B)). Conditions: Flag signal relative to Abp1 WT (Abp1-1 to Abp1-4 = 1); sheet FigS2A-B.
Type: cell-based, Saccharomyces cerevisiae
Set-up: Flag (2 bands): unit not given here
Protocol: Precultures of yeast cells expressing baits fused with the DHFR F[1,2]-FLAG were grown overnight at 30 °C with agitation in synthetic complete medium. The next day, cells were expanded in synthetic complete medium to reach their exponential phase (OD600 of around 1.0), pelleted, and frozen at −80 °C. The equivalent of fifty OD600 of cells was resuspended in ice-cold yeast lysis buffer (10 mM Tris-HCl pH 7.4, 150 mM NaCl, 0.5 mM EDTA (Millipore Sigma), 1% Triton X-100 (Millipore Sigma), and one cOmplete Mini Protease Inhibitor Cocktail (Millipore Sigma) per 10 mL) with […] glass beads (Millipore Sigma) and disrupted at 4 °C by 10 cycles of 2 min vortexing and 2 min cooldown. The equivalent of […] of lysed cells was used for the immunoprecipitation of the bait proteins using FLAG-M2 agarose beads (Millipore Sigma). The beads were incubated with the cell lysates for 120 min at 4 °C with a slow rotation, followed by three washes with the yeast lysis buffer.
Protein extracts and affinity-purified baits from yeast and human lysed cells were migrated on 10% polyacrylamide gels. The separated proteins were then transferred to nitrocellulose membranes. Validation of correct protein loading was done with ponceau staining of the membranes. Before the primary antibody incubations, membranes were blocked in 5% milk. Protein signals were detected on an Amersham Imager 600RGB (GE Healthcare) following the incubation of the membranes with the appropriate HRP-conjugated secondary antibodies and the Clarity Western ECL Substrate (Bio-Rad). The antibodies used in this study are M2-HRP (A8592, Sigma, 1/50,000), rabbit anti-FLAG (F7425, Sigma, 1/1000), PAK (SC-881, Santa Cruz, 1/200), p130cas/BCAR1 (SC-860, Santa Cruz, 1/200), actin (Cell Signaling Technology, 1/2000), anti-mouse HRP (Cell Signaling Technology, 1/10,000) and anti-rabbit HRP (Cell Signaling Technology, 1/10,000). The quantification of the WB signals was performed with the Amersham Imager 600 analysis software (GE Healthcare).
In the case of B1, the “Ratio Swap/WT Flag” value is reported as 0.537.
In the case of B2, the “Ratio Swap/WT Flag” value is reported as 0.7689.
For B3, the “Ratio Swap/WT Flag” value was 0.9802.
In the case of B4, the “Ratio Swap/WT Flag” value is reported as 0.2499.
With B5 the “Ratio Swap/WT Flag” value was 0.3589.
In the case of B6, the “Ratio Swap/WT Flag” value is reported as 0.6541.
In the case of B7, the “Ratio Swap/WT Flag” value is reported as 0.8764.

Same assay, conditions: Western blot Flag signal (2 bands), Abp1 WT, SH3-deleted or SH3-swapped; sheet FigS2A-B
In the case of B1, the “Flag (2 bands)” value is reported as 57357.
In the case of B2, the “Flag (2 bands)” value is reported as 82124.
In the case of B3, the “Flag (2 bands)” value is reported as 104696.
For B4, the “Flag (2 bands)” value was 57952.
In the case of B5, the “Flag (2 bands)” value is reported as 83248.
For B6, the “Flag (2 bands)” value was 151709.
With B7 the “Flag (2 bands)” value was 203262.
